# B1: IMPA1 (parent)
# chain: FIGEESVAAGEKSILTDNPTWIID
# Variants of: B1
# Assay: protein stability index of a GFP-peptide fusion (GPS, HEK-293T) (PSI 1-6); higher = more stable
# Details: c terminus: a fixed tail appended
# 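Further: lentivirally expressed fusions sorted by FACS into six bins by GFP to DsRed ratio, PSI derived from sequencing read proportions per bin multiplied by bin number.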
row,Variant,protein stability index
1,FIGEESVAAGRKSILTDNPTWIID [E11R],1.49
2,FIGEESVAAGVKSILTDNPTWIID [E11V],1.92
3,FIGEESVAAGGKSILTDNPTWIID [E11G],1.96
4,FIGEESVAAGQKSILTDNPTWIID [E11Q],1.98
5,FIGEESVAAGFKSILTDNPTWIID [E11F],2.57
6,FIGEESVAAGYKSILTDNPTWIID [E11Y],1.93
7,FIGEESVAAGKKSILTDNPTWIID [E11K],1.89
8,FIGEESVAAGAKSILTDNPTWIID [E11A],1.86
9,FIGEESVAAGHKSILTDNPTWIID [E11H],1.7
10,FIGEESVAAGCKSILTDNPTWIID [E11C],1.98
11,FIGEESVAAGWKSILTDNPTWIID [E11W],1.37
12,FIGEESVAAGSKSILTDNPTWIID [E11S],2.17
13,FIGEESVAAGLKSILTDNPTWIID [E11L],1.77
14,FIGEESVAAGNKSILTDNPTWIID [E11N],2.04
15,FIGEESVAAGPKSILTDNPTWIID [E11P],1.53
16,FIGEESVAAGDKSILTDNPTWIID [E11D],2.3
17,FIGEESVAAGIKSILTDNPTWIID [E11I],2.1
18,FIGEESVAAGTKSILTDNPTWIID [E11T],2.3
19,FIGEESVAAGMKSILTDNPTWIID [E11M],2.01
20,FIGEESVAALEKSILTDNPTWIID [G10L],2.41
21,FIGEESVAAWEKSILTDNPTWIID [G10W],1.83
22,FIGEESVAAAEKSILTDNPTWIID [G10A],2.18
23,FIGEESVAAPEKSILTDNPTWIID [G10P],2.15
24,FIGEESVAAKEKSILTDNPTWIID [G10K],2.01

row,Variant,protein stability index
1,FIGEESVAAMEKSILTDNPTWIID [G10M],2.2
2,FIGEESVAACEKSILTDNPTWIID [G10C],2.21
3,FIGEESVAAREKSILTDNPTWIID [G10R],1.97
4,FIGEESVAAFEKSILTDNPTWIID [G10F],1.85
5,FIGEESVAAYEKSILTDNPTWIID [G10Y],1.85
6,FIGEESVAAVEKSILTDNPTWIID [G10V],2.37
7,FIGEESVAANEKSILTDNPTWIID [G10N],2.21
8,FIGEESVAAHEKSILTDNPTWIID [G10H],1.87
9,FIGEESVAAEEKSILTDNPTWIID [G10E],2.8
10,FIGEESVAAIEKSILTDNPTWIID [G10I],2.43
11,FIGEESVAADEKSILTDNPTWIID [G10D],2.48
12,FIGEESVAATEKSILTDNPTWIID [G10T],2.19
13,FIGEESVAAQEKSILTDNPTWIID [G10Q],2.67
14,FIGEESVAASEKSILTDNPTWIID [G10S],2
15,FIGEESVAVGEKSILTDNPTWIID [A9V],2.31
16,FIGEESVATGEKSILTDNPTWIID [A9T],2.1
17,FIGEESVAGGEKSILTDNPTWIID [A9G],2.09
18,FIGEESVARGEKSILTDNPTWIID [A9R],1.5
19,FIGEESVAEGEKSILTDNPTWIID [A9E],2.42
20,FIGEESVAMGEKSILTDNPTWIID [A9M],1.75
21,FIGEESVAWGEKSILTDNPTWIID [A9W],1.87
22,FIGEESVACGEKSILTDNPTWIID [A9C],1.84
23,FIGEESVAIGEKSILTDNPTWIID [A9I],1.81
24,FIGEESVANGEKSILTDNPTWIID [A9N],2.03

row,Variant,protein stability index
1,FIGEESVALGEKSILTDNPTWIID [A9L],1.78
2,FIGEESVAKGEKSILTDNPTWIID [A9K],1.96
3,FIGEESVAPGEKSILTDNPTWIID [A9P],2.52
4,FIGEESVAYGEKSILTDNPTWIID [A9Y],2.59
5,FIGEESVADGEKSILTDNPTWIID [A9D],2.98
6,FIGEESVAHGEKSILTDNPTWIID [A9H],1.8
7,FIGEESVAFGEKSILTDNPTWIID [A9F],2.04
8,FIGEESVASGEKSILTDNPTWIID [A9S],1.95
9,FIGEESVAQGEKSILTDNPTWIID [A9Q],2.24
10,FIGLESVAAGEKSILTDNPTWIID [E4L],1.8
11,FIGPESVAAGEKSILTDNPTWIID [E4P],1.77
12,FIGIESVAAGEKSILTDNPTWIID [E4I],1.84
13,FIGDESVAAGEKSILTDNPTWIID [E4D],2.01
14,FIGCESVAAGEKSILTDNPTWIID [E4C],2.04
15,FIGWESVAAGEKSILTDNPTWIID [E4W],3.71
16,FIGRESVAAGEKSILTDNPTWIID [E4R],2.04
17,FIGTESVAAGEKSILTDNPTWIID [E4T],1.85
18,FIGFESVAAGEKSILTDNPTWIID [E4F],3.31
19,FIGYESVAAGEKSILTDNPTWIID [E4Y],1.9
20,FIGQESVAAGEKSILTDNPTWIID [E4Q],1.5
21,FIGVESVAAGEKSILTDNPTWIID [E4V],1.53
22,FIGGESVAAGEKSILTDNPTWIID [E4G],2.14
23,FIGHESVAAGEKSILTDNPTWIID [E4H],1.76
24,FIGSESVAAGEKSILTDNPTWIID [E4S],1.8

row,Variant,protein stability index
1,FIGMESVAAGEKSILTDNPTWIID [E4M],2.35
2,FIGAESVAAGEKSILTDNPTWIID [E4A],2.54
3,FIGNESVAAGEKSILTDNPTWIID [E4N],1.98
4,FIGKESVAAGEKSILTDNPTWIID [E4K],1.83
5,FIVEESVAAGEKSILTDNPTWIID [G3V],2.8
6,FIWEESVAAGEKSILTDNPTWIID [G3W],1.59
7,FIYEESVAAGEKSILTDNPTWIID [G3Y],1.88
8,FIGEEDVAAGEKSILTDNPTWIID [S6D],2.56
9,FIGEEFVAAGEKSILTDNPTWIID [S6F],1.81
10,FIGEEWVAAGEKSILTDNPTWIID [S6W],2.53
11,FIGEERVAAGEKSILTDNPTWIID [S6R],1.51
12,FIGEEPVAAGEKSILTDNPTWIID [S6P],3.1
13,FIGEEEVAAGEKSILTDNPTWIID [S6E],3.07
14,FIGEEQVAAGEKSILTDNPTWIID [S6Q],2.42
15,FIGEELVAAGEKSILTDNPTWIID [S6L],2.24
16,FIGEECVAAGEKSILTDNPTWIID [S6C],1.7
17,FIGEETVAAGEKSILTDNPTWIID [S6T],2.23
18,FIGEEYVAAGEKSILTDNPTWIID [S6Y],1.51
19,FIGEEHVAAGEKSILTDNPTWIID [S6H],2.29
20,FIGEEKVAAGEKSILTDNPTWIID [S6K],1.57
21,FIGEEAVAAGEKSILTDNPTWIID [S6A],2.01
22,FIGEEMVAAGEKSILTDNPTWIID [S6M],2.07

# Reference: the supplement of paper PMC10567573
